Source: article PMC6530996, “HspB1 phosphorylation regulates its intramolecular dynamics and mechanosensitive molecular chaperone interaction with filamin C” (Science Advances, 2019)
No end group written: not given here.

What was measured:
FLNCd18–21 [1] = target: T1, FLNCd18–21 (Homo sapiens, UniProt Q14315); assay: native MS peptide titration / complex detection with FLNCd18–21; type: binding; details: for complex formation with FLNCd18–21: native MS, 200 mM ammonium acetate pH 6.9, peptides at 30 μM with 5 μM FLNCd18–21 (fig. S5D)
T1 construct: WT, residues 1943 to 2408 from UniProt ID Q14315; 6xHis (C); EEF (C); made in house; host or cells: E. coli BL21(DE3) pLysS
T1 sequence (Q14315 1943-2408): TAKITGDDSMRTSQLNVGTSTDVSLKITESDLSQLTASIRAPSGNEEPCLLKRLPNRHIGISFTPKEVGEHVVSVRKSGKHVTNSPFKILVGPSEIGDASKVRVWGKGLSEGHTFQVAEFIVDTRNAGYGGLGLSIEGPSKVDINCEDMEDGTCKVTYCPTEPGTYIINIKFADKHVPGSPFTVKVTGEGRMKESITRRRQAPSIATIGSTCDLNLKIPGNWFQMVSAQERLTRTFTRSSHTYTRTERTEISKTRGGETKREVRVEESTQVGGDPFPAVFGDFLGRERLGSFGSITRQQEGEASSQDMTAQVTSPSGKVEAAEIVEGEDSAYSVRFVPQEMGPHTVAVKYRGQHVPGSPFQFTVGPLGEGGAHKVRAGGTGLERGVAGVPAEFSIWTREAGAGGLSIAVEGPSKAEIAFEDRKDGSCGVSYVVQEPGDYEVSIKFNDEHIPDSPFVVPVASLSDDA
Text: To isolate a stable HspB1-FLNCd18–21 complex and localize the binding within HspB1, we performed native ion mobility MS (IM-MS) experiments. […] Next, we mixed FLNCd18–21 with either HspB1_84–171 or peptides mimicking the PPR, because this region is phosphorylated in the MLP KO mice (Fig. 1C) and generally upon biomechanical stress ([26]) and becomes exposed thereafter. This strategy of using segments of HspB1 meant that we could avoid the problems of insolubilization of the full-length protein upon interaction with FLNC d18–21, as well as generally mitigate the confounding effects associated with the chaperone’s intrinsic polydispersity.
By quantifying the relative abundances of FLNCd18–21 and the peptide-bound species, we could determine binding affinities (Fig. 4B, lower panel, and fig. S4G). We obtained similar dissociation constants (KDs) of 130 ± 17 μM (HspB1_80–88) and 110 ± 10 μM (^PHspB1_80–88), indicating weak binding that is not affected substantially by phosphorylation. These findings contrast with the notable effect of HspB1 phosphomimicry on the interaction of full-length chaperone with the FLNC fragment (Fig. 1E). However, they can be rationalized by phosphorylation increasing the effective concentration of the binding region by modulating its conformational state (Fig. 2B and fig. S3) and leading to dimer (Fig. 2D) and oligomer disassembly ([22], [23]). To localize binding of HspB1_80–88 to domains with Ig folds or to the d20 insertion (which is possibly disordered), we prepared a modified FLNC construct lacking the 82 insertion residues (FLNCd18–21,ΔI).
The region of human FLNC comprising domains 18 to 21 (WT, residues 1943 to 2408 from UniProt ID Q14315; ∆I, residues 1943 to 2408 excluding 2163 to 2243) was encoded in a modified pET23a/EEF with C-terminal 6× His and EEF tags. The plasmid was transformed into E. coli BL21(DE3) pLysS cells (Agilent). To generate the Mβ construct, mutations E2136R and I2138E were introduced by site-directed mutagenesis. Cells were grown in LB at 37°C until an OD600 of 0.6 to 0.8 was reached. […] Purity was assessed by SDS-PAGE, and protein was stored in MS buffer at −80°C and used for experiments within 2 weeks of purification, after noticing in initial preparations some propensity for destabilization and aggregation following long-term storage. […]
Because HspB1 can form disulfide-linked dimers, experiments involving the ACD were performed in the presence of 10-fold molar excess DTT. […] Native MS and IM-MS data were recorded on a Synapt G1 mass spectrometer (Waters) modified for the transmission of intact noncovalent protein complexes. HspB1_77–171 variants were analyzed at a concentration of 10 μM in 200 mM ammonium acetate (pH 6.9). […]

EEF-tagged FLNCd18–21 = assay: coimmunoprecipitation of recombinant proteins; type: binding, human; details: T7 antibody pull-down, 1 μg HspB1, 10 μg FLNCd18–21, 1 hour, room temperature
Protocol: (§1) Next, to validate the interaction in vitro, we expressed EEF-tagged human FLNC domains 18 to 21, encompassing the apparent HspB1 binding site ([16]), and full-length human HspB1 attached to a T7 tag. […] To investigate the effect of HspB1 phosphorylation on the interaction, we expressed WT human HspB1 and ^3PHspB1, a triple mutant containing phosphomimetic Ser to Asp substitutions at residues 15, 78, and 82. Upon incubation with FLNCd18–21 in vitro, we noticed that mixtures accumulated insoluble protein aggregates, while isolated proteins remained soluble. […] The results support an interaction between HspB1 and FLNCd18–21 to form large complexes that can be modulated by phosphorylation of HspB1.
T7-tagged purified recombinant HspB1 protein (1 μg) was added to 10 μg of EEF-tagged recombinant FLNCd18–21 in immunoprecipitation (IP) buffer [0.05% Triton X-100, 1% bovine serum albumin, protease inhibitors (Roche mini complete EDTA-free tablets) in phosphate-buffered saline (PBS)] and incubated for 1 hour, shaking at room temperature. This was followed by another 30-min incubation, shaking at room temperature after the addition of 0.5 μg of anti-T7 (69522, Novagen) or mouse IgG2b isotype (ab18457, Abcam) antibody. Next, 25 μl of protein G Sepharose resin (PC-G5, Generon) was added to each tube and incubated for 1 hour, shaking at room temperature. […]

FLNCd18–21 [2] = target: T1, FLNCd18–21; assay: SDS-PAGE aggregation assay with FLNCd18–21; type: biochemical; details: 80 μM HspB1 + 40 μM FLNCd18–21 (2:1), 200 mM ammonium acetate pH 6.9, 500 μM DTT, 25°C, 90 min, densitometry
Protocol: as §1
HspB1 (WT or 3P) was mixed with FLNCd18–21 at a 2:1 ratio (80 and 40 μM, respectively) in 200 mM ammonium acetate (pH 6.9) with 500 μM DTT and incubated at 25°C for 90 min. Aliquots were removed periodically and pelleted at 13,000g at 10°C for 10 min. Soluble fractions were diluted threefold with 200 mM ammonium acetate for analysis by SDS-PAGE, and pellets were resuspended in the same volume of 200 mM ammonium acetate and solubilized upon addition of the SDS-PAGE loading buffer. Gel bands were quantified by densitometry, using the raw intensities of FLNC and HspB1 bands to extract relative soluble and insoluble proportions at each time point.

[3] = target: T2, human FLNC domains 18 to 21 (FLNC_(d18–21)), EEF-tagged (human, UniProt Q14315 1943-2408); assay: native MS; titration: FLNC_(d18–21) constant at 5 μM, peptide 5 to 160 μM, 200 mM ammonium acetate pH 6.9, acetonitrile vapor; fit with three equivalent binding sites (UniDec); details: both partners purified
T2 construct: human filamin C, domains 18 to 21, residues 1943 to 2408 of UniProt Q14315; Modified pET23a/EEF vector; No cleavage of the tags is described; also called FLNC fragment; source: E. coli BL21(DE3) pLysS, purified (HisTrap, SEC Superdex 200); not shown: EEF, C-terminal, kept
T2 sequence (looked up): T1 sequence (Q14315 1943-2408)

[4] = target: T2, human FLNC domains 18 to 21 …; assay: native MS; native IM-MS of mixtures of FLNC_(d18–21) or FLNC_(d18–21,ΔI) with HspB1_(84–171), HspB1 peptides or an excess of control peptides; 200 mM ammonium acetate pH 6.9; details: both partners purified
[5] = target: T2, human FLNC domains 18 to 21 …; assay: cell-based or functional assay

## HspB1_84–171: Human HspB1 α-crystallin domain (ACD)
FLNCd18–21 [1]
  complex formation with FLNCd18–21: Complexes were not observed
FLNCd18–21 [1]; listed as HspB184-171
  complex formation with FLNCd18–21: No complex is observed

## HspB1_177–186: Peptide from human HspB1, C-terminal residues 177 to 186 (NEITIPVTFE; UniProt P04792 177-186, looked up, fragment) [reference compound]
FLNCd18–21 [1]
  complex formation with FLNCd18–21: No appreciable complex is detected

## QLSSGVSEI [HspB1_80–88]
FLNCd18–21 [1]; native MS titration, 5 μM FLNCd18–21, 5 to 160 μM peptide, 200 mM ammonium acetate pH 6.9, minimum three technical repeats, model of three equivalent binding sites, 500 bootstraps, apparent KD, read-out: dissociation constant KD (apparent)
  Kd: > 100 µM

## T7-tagged HspB1: Full-length WT HspB1 with an N-terminal T7 tag
EEF-tagged FLNCd18–21
  coimmunoprecipitation of FLNCd18–21: pulled down both HspB1 and FLNCd18–21
EEF-tagged FLNCd18–21; listed as full-length human HspB1 attached to a T7 tag
  coimmunoprecipitation of FLNCd18–21: confirming a direct interaction

## WT human HspB1: Full-length WT HspB1
FLNCd18–21 [2]
  migration to pelleted fraction of mixture with FLNCd18–21: both proteins migrated to the pelleted fraction over time

## ^3PHspB1: Full-length human HspB1 with Ser to Asp phosphomimic substitutions at residues 15, 78 and 82
FLNCd18–21 [2]
  migration to pelleted fraction of mixture with FLNCd18–21: substantially increased by phosphomimicry

B1: ^PHspB1_(80–88) phosphorylated peptide (peptide, UniProt P04792 80-88, looked up)
peptide: QLSSGVSEI
modifications: also: phosphorylated, site not given here
notes: N-terminal acetylation open as for m13; also called phosphopeptide; source: synthetic peptide, bought: Biomatik
[3]
  Kd: 110 ± 10 µM
  stoichiometry N: ≤ 3
[4]
  stoichiometry N: ≤ 2
[5]
  activation required for the transition of unfolding intermediate B to final state C of FLNC_(d18–21) with one peptide bound (coulombically steered unfolding, IM-MS): ~75 V
